From the supplement of paper PMC10567573

B1: TRIM39 (parent)
chain: CKACITRWWEDLERDFPCPVCRKT
B2: TRIM43 (parent)
chain: RAQMIRNEYRKLHPVLHKEEKQHL

Variants of: B1
Assay: protein stability index of a GFP-peptide fusion (GPS, HEK-293T) (PSI 1-6); higher = more stable
Details: c terminus: a fixed tail appended
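Further: lentivirally expressed fusions sorted by FACS into six bins by GFP to DsRed ratio, PSI derived from sequencing read proportions per bin multiplied by bin number.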

Protein stability index: each site, then its substitutions
K2: D 4.5, F 3.34, G 3.59, C 3.64, I 3.25, L 3.58, H 4.08, A 4.08, N 4.4, E 4.48, M 3.69
C1: N 1.67, F 1.42, Y 1.72, K 1.76, H 2.16, A 1.94, Q 2.3, R 2.43, W 2.56, E 2.07, P 2.42, I 1.27, D 2.45, M 2.26, S 1.68, G 1.74, T 2.06, V 2.27, L 2.31

Variants of: B2
Assay: as above
Details: c terminus: a fixed tail appended

Protein stability index, by site and new letter:
H17: Y 2.96, W 2.8, T 3.2, V 3.74
H23: I 2.46, A 3.08, W 2.61, K 3.33, T 3.23, M 3.39, C 3.51, Q 3.35, G 3.63, R 2.94, P 3.09, F 2.58, Y 2.74, V 3.17, L 3.18, E 3.81, N 3.13, D 4.45, S 3.45
K21: F 2.58, C 3.18, D 3.82, I 2.59, S 2.81, A 2.91, G 2.42, N 2.77, M 2.54, R 3.46, L 2.4, W 2.51, Q 4.17, H 3.15, V 3.37, P 2.97, Y 2.71, T 2.92, E 4.63
K18: E 4.06, N 3.2, T 3.06, P 3.48, W 2.44, H 3.59, F 2.4, I 2.6, Q 3.49, M 2.6, L 2.95, V 3.26, A 2.81, C 2.7, R 2.55, G 3.37, S 3.54, Y 3.09, D 3.45
L24: S 3.82, V 3.67, M 3.45, C 3.65, T 4.01, F 2.36, N 4.01, W 2.88, Q 3.84, G 3.67, H 3.61, I 3.19, P 3.5, K 3.77, D 4.51, E 4.61, Y 3.34, R 3.06, A 3.59
Q22: T 2.58, S 3.3, V 2.64, A 2.89, R 3.62, Y 2.71, W 2, H 2.91, N 3.07, G 2.34, F 1.86, P 3.47, C 2.54, I 2.54, K 2.99, M 2.3, E 3.82, D 3.65, L 2.33
E20: D 3.38, H 2.63, G 2.29, T 2.83, M 2.29, S 2.85, C 2.57, R 1.83, V 1.97, P 2.09, F 1.91, K 2.95, A 2.32, Q 2.76, Y 1.83, W 1.66, I 2.42, N 2.32, L 1.83
E19: Q 3.22, K 3.41, R 2.93, F 1.98, S 2.92, Y 1.97, L 2.07, I 1.73, G 2.96, H 2.34, D 3.02, N 2.42, W 2.18, A 2.17, V 2.25, T 2.82, C 2.71, M 2.23, P 4.02
